Molecular target: C3b (UniProt P01024)
Test: microplate/western blot assay; protocol 1, formation step: C3b-coated wells; FB 1,000 ng/ml, FD 10 ng/ml, 10 mM MgCl2, 100 ug/ml control or patients' IgGs, 12 min at 25 C, without or with FH 2,640 ng/ml during formation; density of the Bb band with FH over that without FH

Which results are given for “factor H (from UniProt P08603 19-1231) (natural protein)”?
ratio Bb band + FH / Bb band without FH (with FH-CSA+ C3NeF IgGs of patients): 0.58; ratio Bb band + FH / Bb band without FH (with FH-CSA- C3NeF IgGs of patients): 0.32; ratio Bb band + FH / Bb band without FH (with control IgGs): 0.32

Source: paper PMC6248175
